One assay concerns the target MCP-1 (human, UniProt P13500 24-99, limits assumed, N-terminal pyroglutamate (pGlu peptide)). The assay can be described thus: SPR (Biacore 3000), peptide on CM5 chip, antibody 25 µg/ml. For orientation: SPR reads the build-up and loss of mass on a sensor chip optically.
In a further assay the target is T1, MCP-2 (human, UniProt P80075 24-99, limits assumed, N-terminal pyroglutamate (pGlu peptide)).
T1 construct: Whole peptide or N-terminal region
T1 sequence (peptide, looked up): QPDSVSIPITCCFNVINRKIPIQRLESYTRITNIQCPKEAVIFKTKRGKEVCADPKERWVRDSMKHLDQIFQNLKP
The assay is described as above.

For a further assay, the target named is T2, Big Gastrin (human, UniProt P01350 59-92, limits assumed, N-terminal pyroglutamate (pGlu peptide)).
T2 construct: Whole peptide or N-terminal region
T2 peptide (looked up): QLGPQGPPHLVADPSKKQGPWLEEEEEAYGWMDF
The assay is described as above.

A further assay has as its target T3, Gonadoliberin (human, UniProt P01148 24-33, N-terminal pyroglutamate (pGlu peptide)).
T3 construct: Whole peptide or N-terminal region
T3 peptide (looked up): QHWSYGLRPG
The assay is described as above.

Another assay concerns the target T4, Neurotensin (human, UniProt P30990 151-163, N-terminal pyroglutamate (pGlu peptide)).
T4 construct: Whole peptide or N-terminal region
The description is as above.

The target of a further assay is T5, Orexin A (human, UniProt O43612 34-66, limits assumed, N-terminal pyroglutamate (pGlu peptide)).
T5 construct: Whole peptide or N-terminal region
T5 peptide (looked up): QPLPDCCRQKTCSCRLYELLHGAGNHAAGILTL
The assay is described as above.

For a further assay, the target named is T6, Collagen 1 (human).
T6 construct: Whole protein or N-terminal region, and which collagen chain
The description is as above.

The next assay has as its target T7, Aβ 4-40.
T7 construct: No entry of its own
Description: N3pE sandwich ELISA (4G8 capture, 6-1-6 detection), peptide at 100 pg/ml. On the technique in general: In an ELISA, binding on a coated surface is turned into a signal by an enzyme label.

This is an account of results in patent US20120064547A1 (PROBIODRUG, published 2012).

Description for Aβ 4-40: A 96-well maxisorb plate (Nunc) was coated with capture antibody by incubation of 100 μl per well of 2 μg/ml anti-Aβ antibody 4G8, diluted in D-PBS, overnight at 4° C. The plated was sealed. The coating solution was removed and the surface of the plate was blocked with 200 μl per well PIERCE Protein-free ELISA-Blocker (without Tween-20) for 2 hours at room temperature. Afterwards the plate was washed with 6-times with TBS+0.05% (v/v) Tween-20. Remaining washing solution was removed by tapping of the plate. […] 100 μl of every concentration and 100 μl of dilution buffer (Blank) were pipetted on the plate. The plate was sealed and incubated at 4° C. for 2 hours. Afterwards the plate was washed 6-times with TBS+0.05% (v/v) Tween-20. Remaining washing solution was removed by tapping of the plate. […] The plate was sealed and incubated at 4° C. for 1 hour. Afterwards the plate was washed 6-times with TBS+0.05% (v/v) Tween-20. Remaining washing solution was removed by tapping of the plate. In every well 100 μl SureBlue substrate solution (KPL) were pipetted and the plate was incubated in the dark at room temperature for 30 min. The reaction was stopped by addition of 100 μl per well of 1 M H₂SO₄. The absorbance was measured with TECAN Sunrise at 450 nm corrected by the absorbance at 540 nm.
Description for Big Gastrin: (§1) Beside different Aβ species also the cross reactivity to other pGlu-Peptide, which occur in the human body, was determined. This was made by surface plasmon resonance. Following peptides or there N-terminal region of them were immobilized on the surface of CM5-Chips:
(§2) MCP1, MCP2, big gastrin, gonadoliberin, neurotensin, orexin A, fibronectin, collagen 1 and TRH. As positive control also the binding to AβpE3-40 was analyzed. […] For every interaction of the antibody with the different peptides the association and dissociation was recorded. The cross reactivity was determined by evaluation of the association phase concerning rate and signal at the end. The values for all pGlu-Peptides compared with the signal for AβpE3-40.
(§3) The sensograms of the pGlu peptides were compared with the sensogram for AβpE3-40.
Description for Collagen 1: as §1, §2, §3
Description for Gonadoliberin: as §1, §2, §3
Description for MCP-1: as §1, §2, §3
Description for MCP-2: as §1, §2, §3
Description for Neurotensin: as §1, §2, §3
Description for Orexin A: as §1, §2, §3

B1: Aβ 6-1-6 (monoclonal antibody of hybridoma cell line 6-1-6, DSM ACC 2924) (antibody, V domains shown)
VH: EVQLQQSGPELVKPGASMKISCKASGYSFTGYTMNWVKQSHGKNLEWIGLINPYNGVTRYNQKFKGKATLIVDKSSSTAYMELLSLTSEDSAVYYCTREAKREWDETYWGQGTLVTVSA
VL: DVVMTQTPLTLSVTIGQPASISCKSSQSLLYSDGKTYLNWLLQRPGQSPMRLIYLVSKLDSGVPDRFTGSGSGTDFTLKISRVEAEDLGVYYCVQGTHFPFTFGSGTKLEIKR
notes: Mouse hybridoma IgG; The entries as printed begin with a leader and end with the first residues of the constant region; Heavy chain amplified with primer MHCG1, light chain with MKC; also called clone 6-1-6; N3pE antibody clone 6-1-6
With B1, the “% cross reactivity (against AβpE3-40)” value with MCP-1, with MCP-2, in the assay with Big Gastrin, in the assay with Gonadoliberin, with Neurotensin and with Orexin A was less than 1% throughout. The “% cross reactivity (against AβpE3-40)” value in the assay with Collagen 1 was less than 1%. For the same molecule, the “absorbance (450 nm corrected by 540 nm)” value in the assay with Aβ 4-40 worked out at 0.045 absorbance.
